Measured values taken from PMC13463089, “PA200 modulates immunoproteasome structure and activity” (Nature Communications, 2026).
Numbered stars: 1 amine (or outer) side, 2 acyl side, 3 side chain; on linkers, the order of the positions; unused ones are H or OH. Peptide text beside a SMILES is read from it. * marks the point of attachment. AMC = Cc1cc(=O)oc2cc(N*)ccc12; Suc = O=C(CCC(=O)[*:2])[*:1]

Experiments:
[1] = target: T1, s20S (standard 20S proteasome), beta5 site (Homo sapiens, UniProt P28074); test: fluorogenic AMC release; assay type: biochemical; settings: chymotrypsin-like (beta5) site; 200 uM substrate, 1.5 nM 20S, pH 7.6, 37 C
T1 construct: gene PSMB5; with Proteasome subunit beta type-6; Proteasome subunit beta type-7; Proteasome subunit alpha type-6; Proteasome subunit alpha type-2; Proteasome subunit alpha type-4; Proteasome subunit alpha type-7; Proteasome subunit alpha type-5; Proteasome subunit alpha type-1; Proteasome subunit alpha type-3; Proteasome subunit beta type-3; Proteasome subunit beta type-2; Proteasome subunit beta type-1; Proteasome subunit beta type-4
T1 sequence (P28074 60-263): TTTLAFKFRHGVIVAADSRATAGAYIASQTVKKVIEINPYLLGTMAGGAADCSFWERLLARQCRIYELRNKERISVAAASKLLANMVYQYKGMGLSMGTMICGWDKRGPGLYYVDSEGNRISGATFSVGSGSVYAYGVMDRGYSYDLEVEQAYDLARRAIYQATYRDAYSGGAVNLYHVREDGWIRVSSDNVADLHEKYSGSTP

[2] = target: T2, i20S (20S immunoproteasome), beta5i site (Homo sapiens, UniProt P28062); test: fluorogenic AMC release; assay type: biochemical; settings: chymotrypsin-like (beta5i) site; 200 uM substrate, 1.5 nM 20S, pH 7.6, 37 C
T2 construct: gene PSMB8; with Proteasome subunit beta type-9; Proteasome subunit beta type-10; Proteasome subunit alpha type-6; Proteasome subunit alpha type-2; Proteasome subunit alpha type-4; Proteasome subunit alpha type-7; Proteasome subunit alpha type-5; Proteasome subunit alpha type-1; Proteasome subunit alpha type-3; Proteasome subunit beta type-3; Proteasome subunit beta type-2; Proteasome subunit beta type-1; Proteasome subunit beta type-4
T2 sequence (P28062 73-276): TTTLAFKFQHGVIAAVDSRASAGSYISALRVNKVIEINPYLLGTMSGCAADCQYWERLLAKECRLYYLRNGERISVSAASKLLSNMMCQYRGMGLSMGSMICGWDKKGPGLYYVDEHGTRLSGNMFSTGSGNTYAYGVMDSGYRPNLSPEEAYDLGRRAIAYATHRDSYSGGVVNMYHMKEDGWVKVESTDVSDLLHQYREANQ

[3] = target: human i20S purified from HEK293-EBNA cells (human) (UniProt P60900); test: mass photometry; 20S at 120 nM titrated with PA200 (PA200:20S molar ratios from 0 to 15), Tris 50 mM pH 7.6, 2 h on ice, diluted six times to 20 nM 20S immediately before measurement; apparent KD from counts of free, singly- and doubly-capped 20S
[4] = target: human standard 20S proteasome (s20S) purchased from Enzo (human) (UniProt P60900); test: as above
[5] = target: T3, recombinantly expressed and purified human PA200 (human), Q14997; test: as above; settings: remark: other sources report otherwise
T3 chain: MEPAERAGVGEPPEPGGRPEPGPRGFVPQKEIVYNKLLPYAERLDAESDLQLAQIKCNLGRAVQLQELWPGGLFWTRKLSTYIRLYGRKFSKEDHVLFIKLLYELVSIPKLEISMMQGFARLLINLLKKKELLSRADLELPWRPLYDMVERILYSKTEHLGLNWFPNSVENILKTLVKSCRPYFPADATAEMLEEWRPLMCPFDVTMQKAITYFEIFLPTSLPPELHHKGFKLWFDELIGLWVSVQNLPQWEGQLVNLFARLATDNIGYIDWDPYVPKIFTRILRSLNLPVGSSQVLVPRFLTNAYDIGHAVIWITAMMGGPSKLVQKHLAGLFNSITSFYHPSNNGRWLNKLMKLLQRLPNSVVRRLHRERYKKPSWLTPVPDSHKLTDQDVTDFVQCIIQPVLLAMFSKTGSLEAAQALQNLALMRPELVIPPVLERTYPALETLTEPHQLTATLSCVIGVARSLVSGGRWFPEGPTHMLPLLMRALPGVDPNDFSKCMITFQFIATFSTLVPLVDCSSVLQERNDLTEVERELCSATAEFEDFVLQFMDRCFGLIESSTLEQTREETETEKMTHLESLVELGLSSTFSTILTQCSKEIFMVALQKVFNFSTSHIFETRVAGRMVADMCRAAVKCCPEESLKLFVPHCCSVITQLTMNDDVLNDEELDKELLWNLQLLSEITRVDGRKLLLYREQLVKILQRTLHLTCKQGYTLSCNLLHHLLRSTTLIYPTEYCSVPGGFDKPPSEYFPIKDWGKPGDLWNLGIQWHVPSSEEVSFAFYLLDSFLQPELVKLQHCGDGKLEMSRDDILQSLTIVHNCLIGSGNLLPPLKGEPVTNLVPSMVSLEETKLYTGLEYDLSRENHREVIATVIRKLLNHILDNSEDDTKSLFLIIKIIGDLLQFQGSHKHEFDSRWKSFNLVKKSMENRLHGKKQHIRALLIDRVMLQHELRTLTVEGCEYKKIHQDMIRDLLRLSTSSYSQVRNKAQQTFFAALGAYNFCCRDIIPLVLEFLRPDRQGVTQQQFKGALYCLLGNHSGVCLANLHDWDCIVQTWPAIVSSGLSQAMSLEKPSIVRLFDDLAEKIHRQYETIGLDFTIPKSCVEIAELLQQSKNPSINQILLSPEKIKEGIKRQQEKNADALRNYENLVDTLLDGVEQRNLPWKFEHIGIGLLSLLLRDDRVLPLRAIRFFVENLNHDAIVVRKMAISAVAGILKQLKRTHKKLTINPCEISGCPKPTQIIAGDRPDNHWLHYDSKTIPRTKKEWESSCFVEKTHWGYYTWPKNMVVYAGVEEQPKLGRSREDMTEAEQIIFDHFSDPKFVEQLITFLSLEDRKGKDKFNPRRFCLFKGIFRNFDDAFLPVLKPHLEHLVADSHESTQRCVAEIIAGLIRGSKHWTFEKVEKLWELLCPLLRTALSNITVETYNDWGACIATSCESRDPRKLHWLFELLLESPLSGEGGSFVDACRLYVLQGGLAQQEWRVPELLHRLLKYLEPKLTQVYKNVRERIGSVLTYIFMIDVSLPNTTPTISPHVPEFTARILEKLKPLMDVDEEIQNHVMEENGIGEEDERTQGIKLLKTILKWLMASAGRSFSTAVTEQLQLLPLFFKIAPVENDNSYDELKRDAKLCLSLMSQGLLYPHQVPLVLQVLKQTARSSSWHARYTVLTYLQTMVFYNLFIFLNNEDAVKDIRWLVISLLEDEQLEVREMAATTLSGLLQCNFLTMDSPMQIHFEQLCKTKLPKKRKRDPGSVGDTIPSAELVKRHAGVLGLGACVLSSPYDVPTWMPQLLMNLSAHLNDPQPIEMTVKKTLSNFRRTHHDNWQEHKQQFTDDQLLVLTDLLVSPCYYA

Which “fluorogenic AMC release” value [1] does the source give for `Cc1cc(=O)oc2cc(NC(=O)[C@H](Cc3ccc(O)cc3)NC(=O)[C@@H](NC(=O)[C@H](CC(C)C)NC(=O)[C@H](CC(C)C)NC(=O)CCC(=O)O)C(C)C)ccc12` [Suc-LLVY-AMC] (Suc-LLVY-{AMC}) here?
Its value is “the baseline CT-L and T-L activities of the i20S and s20S were similar”.

What about the “fluorogenic AMC release” value [2] of the same molecule?
The value was “the baseline CT-L and T-L activities of the i20S and s20S were similar”.

How did the apparent KD of the first PA200 binding event [3] turn out when “recombinantly expressed and purified human PA200 (from UniProt Q14997 1-1843) (natural protein)” was run?
Its apparent KD of the first PA200 binding event is 40 nM.

What about the apparent KD of the second PA200 binding event [3] of the same molecule?
Its apparent KD of the second PA200 binding event is 150 nM.

What about the apparent KD of the first PA200 binding event [4] of the same molecule?
Its apparent KD of the first PA200 binding event is 40 nM.

And the apparent KD of the second PA200 binding event [4]?
Its apparent KD of the second PA200 binding event is 150 nM.

B1: recombinantly expressed and purified human PA200, Q14997 1-1843 (natural protein)
chain: MEPAERAGVGEPPEPGGRPEPGPRGFVPQKEIVYNKLLPYAERLDAESDLQLAQIKCNLGRAVQLQELWPGGLFWTRKLSTYIRLYGRKFSKEDHVLFIKLLYELVSIPKLEISMMQGFARLLINLLKKKELLSRADLELPWRPLYDMVERILYSKTEHLGLNWFPNSVENILKTLVKSCRPYFPADATAEMLEEWRPLMCPFDVTMQKAITYFEIFLPTSLPPELHHKGFKLWFDELIGLWVSVQNLPQWEGQLVNLFARLATDNIGYIDWDPYVPKIFTRILRSLNLPVGSSQVLVPRFLTNAYDIGHAVIWITAMMGGPSKLVQKHLAGLFNSITSFYHPSNNGRWLNKLMKLLQRLPNSVVRRLHRERYKKPSWLTPVPDSHKLTDQDVTDFVQCIIQPVLLAMFSKTGSLEAAQALQNLALMRPELVIPPVLERTYPALETLTEPHQLTATLSCVIGVARSLVSGGRWFPEGPTHMLPLLMRALPGVDPNDFSKCMITFQFIATFSTLVPLVDCSSVLQERNDLTEVERELCSATAEFEDFVLQFMDRCFGLIESSTLEQTREETETEKMTHLESLVELGLSSTFSTILTQCSKEIFMVALQKVFNFSTSHIFETRVAGRMVADMCRAAVKCCPEESLKLFVPHCCSVITQLTMNDDVLNDEELDKELLWNLQLLSEITRVDGRKLLLYREQLVKILQRTLHLTCKQGYTLSCNLLHHLLRSTTLIYPTEYCSVPGGFDKPPSEYFPIKDWGKPGDLWNLGIQWHVPSSEEVSFAFYLLDSFLQPELVKLQHCGDGKLEMSRDDILQSLTIVHNCLIGSGNLLPPLKGEPVTNLVPSMVSLEETKLYTGLEYDLSRENHREVIATVIRKLLNHILDNSEDDTKSLFLIIKIIGDLLQFQGSHKHEFDSRWKSFNLVKKSMENRLHGKKQHIRALLIDRVMLQHELRTLTVEGCEYKKIHQDMIRDLLRLSTSSYSQVRNKAQQTFFAALGAYNFCCRDIIPLVLEFLRPDRQGVTQQQFKGALYCLLGNHSGVCLANLHDWDCIVQTWPAIVSSGLSQAMSLEKPSIVRLFDDLAEKIHRQYETIGLDFTIPKSCVEIAELLQQSKNPSINQILLSPEKIKEGIKRQQEKNADALRNYENLVDTLLDGVEQRNLPWKFEHIGIGLLSLLLRDDRVLPLRAIRFFVENLNHDAIVVRKMAISAVAGILKQLKRTHKKLTINPCEISGCPKPTQIIAGDRPDNHWLHYDSKTIPRTKKEWESSCFVEKTHWGYYTWPKNMVVYAGVEEQPKLGRSREDMTEAEQIIFDHFSDPKFVEQLITFLSLEDRKGKDKFNPRRFCLFKGIFRNFDDAFLPVLKPHLEHLVADSHESTQRCVAEIIAGLIRGSKHWTFEKVEKLWELLCPLLRTALSNITVETYNDWGACIATSCESRDPRKLHWLFELLLESPLSGEGGSFVDACRLYVLQGGLAQQEWRVPELLHRLLKYLEPKLTQVYKNVRERIGSVLTYIFMIDVSLPNTTPTISPHVPEFTARILEKLKPLMDVDEEIQNHVMEENGIGEEDERTQGIKLLKTILKWLMASAGRSFSTAVTEQLQLLPLFFKIAPVENDNSYDELKRDAKLCLSLMSQGLLYPHQVPLVLQVLKQTARSSSWHARYTVLTYLQTMVFYNLFIFLNNEDAVKDIRWLVISLLEDEQLEVREMAATTLSGLLQCNFLTMDSPMQIHFEQLCKTKLPKKRKRDPGSVGDTIPSAELVKRHAGVLGLGACVLSSPYDVPTWMPQLLMNLSAHLNDPQPIEMTVKKTLSNFRRTHHDNWQEHKQQFTDDQLLVLTDLLVSPCYYA
For B1, which stoichiometry N [5] is on record?
Its stoichiometry N is 2.
